Source: patent EP4261227A1

Target: OXA-48-like carbapenemase (Klebsiella pneumoniae) (UniProt Q6XEC0)
Assay: indirect ELISA, plate coated with 0.2 ug/mL OXA-48-like carbapenemase, purified antibody in doubling dilutions from 1:1000

Chain of UniProt Q6XEC0 (Q6XEC0 23-265 limits assumed): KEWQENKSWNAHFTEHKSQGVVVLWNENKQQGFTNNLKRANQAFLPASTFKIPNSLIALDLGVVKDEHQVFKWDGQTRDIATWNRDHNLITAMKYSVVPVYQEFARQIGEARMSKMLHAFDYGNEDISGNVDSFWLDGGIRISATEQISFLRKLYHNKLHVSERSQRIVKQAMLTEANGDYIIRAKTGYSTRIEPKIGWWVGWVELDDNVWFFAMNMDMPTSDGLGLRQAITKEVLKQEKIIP

B1: anti-OXA-48-like carbapenemase mouse mAb IB5 (antibody, V domains shown)
VH: EVMLVESGGGLVKPGGSLKLSCAASGFTFSTYAMSWVRLTPEKRLEWVATISSGGSYTSYPDSVKGRFTISRDNAKNTLYLQMSSLRSEDTAMYYCARRPEYAMDYWGQGTSVTVSS
VL: LVQHQPVSSYLAASPGETVTINCRASKSISKYLAWYQEKPGKTNKLLIYSGSTFQSGFPSGFSGSGSGTDFTLTVSSLEPEDFAIYYCQQHNEYPYVTFGGGTKLEIKR
B1 was tested, and the titer (dilution factor (1:x) from 1 mg/mL) was 1.28e+06.
